Laboratory results reported in patent US5712366, “Fabrication of nanoscale materials using self-assembling proteins” (The United States of America as represented by the …, dated 1998).

How the values were obtained:
[1] = target: T1, polypeptide C2 (amino acid sequence of FIG. 4C); test: surface plasmon resonance, one species immobilized onto a gold film
T1 chain: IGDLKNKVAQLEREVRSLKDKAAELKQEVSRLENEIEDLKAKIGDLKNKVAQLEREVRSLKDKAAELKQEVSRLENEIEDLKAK
Method: Next, the interaction of polypeptide A2 with polypeptides B2 and C2, when both of the components were free in solution and when one species was immobilized onto a gold film, was examined. The immobilization tests were performed to measure the rates of association and dissociation between the complexes. Surface plasmon resonance was used to detect minute changes in refractive index that accompanied a specific binding event in the immediate vicinity of the metal surface. […] After an initial increase in refractive index due to solvent exchange, it is seen that the rate of association for the A2-B2 complex was more rapid and that the equilibrium response was achieved sooner. […] For the A2-C2 interaction, kass=3.46×10^3, kdiss=[…], and K_a=1.45×10^6.

[2] = target: T2, polypeptide B2 (amino acid sequence of FIG. 4B); test: turbidity at 400 nm on mixing at equal concentrations; gel analysis of the precipitate
T2 chain: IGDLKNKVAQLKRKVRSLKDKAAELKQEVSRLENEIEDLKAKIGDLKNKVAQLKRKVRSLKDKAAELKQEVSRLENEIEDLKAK
Excerpt: First, the interaction between polypeptides A2 and B2 was investigated using turbidity measurements at 400 nm. […] When the polypeptides were mixed at equal concentrations, a rapid increase in turbidity was seen. This was attributed to specific heterodimer formation, which subsequently associated into higher order structures that precipitated in solution. […] No similar increase in the turbidity of the homodimer solutions was observed prior to mixing.

binding result [1]: binds | binding result [2]: binds
B1: polypeptide A2 (amino acid sequence of FIG. 4A) (designed binder)
chain: IGDLENEVAQLEREVRSLEDEAAELEQKVSRLKNEIEDLKAEIGDLENEVAQLEREVRSLEDEAAELEQKVSRLKNEIEDLKAE
